Measurements published in patent publication US6103888A, “Mammalian cationic proteins having lipopolysaccharide binding and anti-coagulant activity” (priority 1999, dated 2000).
Where “and” joins values, the source holds several entries; their conditions need not be identical. Equal entries are not always repeated.

Legend:
encapsulated E. coli = conditions: cited from earlier work
[1] = tested on: rough mutant strain of Proteus mirabilis; conditions: cited from earlier work
[2] = tested on: wild-type smooth Proteus mirabilis; conditions: wild-type smooth organism (Proteus mirabilis); cited from earlier work
Staphylococcus aureus = conditions: Gram-positive Staphylococcus aureus; cited from earlier work
human mononuclear cells = test: LPS-induced tissue factor by human mononuclear cells (clotting assay); assay type: cell-based
Protocol: Human mononuclear cells were separated from citrated peripheral blood by centrifugation over Sodium-metrizoate-Ficoll (lymphocyte Separation Medium, Japan Antibody Institute, Gumma). The resulting mixed mononuclear cell suspension was washed 3 times with RPMI 1640 media. Cell suspension (1×10^6 /ml) was stimulated with LPS for 16 to 18 hr.
Veronal buffered saline (VBS) was added to the cell pellet, lysed by 3 cycles of freeze/thaw and sonicated for 10 sec with a hand-held sonicator microbe (Handy Sonic, model UR-20P, Tomy Seiko LTD, Tokyo). Tissue factor activity was tested in modified unactivated partial thromboplastin time (7). One tenth ml of cell lysate (1×10^6 /ml) was preincubated with mouse plasma at 37° C. for 3 min. Then 0.1 ml of 25 mM-CaCl2 which contains phospholipid was added to the mixture and clotting time was measured using a fibrometer (Bio Quest Division, Becton Dickinson, Cokeysville, USA). A standard curve obtained from serial two-fold dilutions of rabbit brain thromboplastic (Simplastin, Ono Pharmaceutical Co.) was used to transpose tissue factor activity into arbitrary tissue factor units (1 μg/ml) suspension of rabbit brain was assigned a value of 1,000 units).
The mean tissue factor units+standard error was determined from three to four samples. Student's t test for unpair data was used to determine the statistically significant differences. A two-tailed P value of <0.05 was considered significant. […]

[3] = tested on: galactosamine-sensitized mice; assay type: in vivo; conditions: CAP18 40 μg IP alone, no galactosamine, no Re-LPS; groups of 10 mice
Excerpt: Galactosamine sensitizes mice to the lethal effects of LPS by a factor 1000 or more. CAP18 and LPS were mixed and injected IP into sensitized mice. CAP18 can neutralize the lethal effects of LPS in this model of endotoxemia (see Table 8).

[4] = LPS 0.1 μg/ml, peptide HA units: RNIP 2, CAP-18 1, HP-1 4, HP-2 2

Molecule	growth inhibitory activity, reduction over control (encapsulated E. coli)	growth inhibition [1]	growth inhibition [2]	growth inhibition (Staphylococcus aureus)	Inhibition (%) (human mononuclear cells; [4])	Tissue Factor Units, value in parentheses (ratio to unstimulated control) (human mononuclear cells; [4])	Δ Units (%) (human mononuclear cells; LPS 0.1 μg/ml, relative to LPS alone (100))	Tissue Factor Units, value in parentheses (ratio to unstimulated control) (human mononuclear cells; no LPS, peptide alone)	Tissue factor units (human mononuclear cells; no LPS, peptide alone)	Δ Units (human mononuclear cells; no LPS, peptide alone) [Units]	Lethality (%) [3] [%]
BPI55: BPI holoprotein (protein, UniProt P17213 32-487, looked up) Bactericidal …: VNPGVVVRISQKGLDYASQQGTAALQKELKRIKIPDYSDSFKIKHLGKGHYSFYSMDIREFQLPSSQISMVPNVGLKFSISNANIKISGKWKAQKRFLKMSGNFDLSIEGMSISADLKLGSNPTSGKPTITCSSCSSHINSVHVHISKSKVGWLIQLFHKKIESALRNKMNSQVCEKVTNSVSSELQPYFQTLPVMTKIDSVAGINYGLVAPPATTAETLDVQMKGEFYSENHHNPPPFAPPVMEFPAAHDRMVYLGLSDYFFNTAGLVYQEAGVLKMTLRDDMIPKESKFRLTTKFFGTFLPEVAKKFPNMKIQIHVSASTPPHLSVQPTGLTFYPAVDVQAFAVLPNSSLASLFLIGMHTTGSMEVSAESNRLVGELKLDRLLLELKHSNIGPFPVELLQDIMNYIVPILVLPRVNEKLQKGFPLPTPARVQLYNVVLQPHQNFLLFGADVVYK	about 100 fold	inhibited the growth	only the rBPI23 inhibited growth	Neither rBPI23 nor holoprotein BPI55 demonstrated inhibition	–	–	–	–	–	–	–
CAP18: cationic protein from rabbit granulocytes, 16.6 kD, SEQ ID NO:4 (protein) METHKHGPSLAWWSLLLLLLGLLMPPAIAQDLTYREAVLRAVDAFNQQSSEANLYRLLSMDPQQLEDAKPYTPQPVSFTVKETECPRTTWKLPEQCDFKEDGLVKRCVGTVTRYQAWDSFDIRCNRAQESPEPTGLRKRLRKFRNKIKEKLKKIGQKIQGLLPKLAPRTDY	–	–	–	–	30% and 35%	9.9	70% and 65%	1.2	583 ± 178 Units ×10^3 /3.6 × 10^4 cells	235	0
